Laboratory results taken from patent publication US20180258163A1 (Chugai, published 2018).
Positions count from the first letter of the chain named.

B1: Ab1H-P600/Ab1L (antibody, human IgG1, kappa, name in EU numbering)
heavy: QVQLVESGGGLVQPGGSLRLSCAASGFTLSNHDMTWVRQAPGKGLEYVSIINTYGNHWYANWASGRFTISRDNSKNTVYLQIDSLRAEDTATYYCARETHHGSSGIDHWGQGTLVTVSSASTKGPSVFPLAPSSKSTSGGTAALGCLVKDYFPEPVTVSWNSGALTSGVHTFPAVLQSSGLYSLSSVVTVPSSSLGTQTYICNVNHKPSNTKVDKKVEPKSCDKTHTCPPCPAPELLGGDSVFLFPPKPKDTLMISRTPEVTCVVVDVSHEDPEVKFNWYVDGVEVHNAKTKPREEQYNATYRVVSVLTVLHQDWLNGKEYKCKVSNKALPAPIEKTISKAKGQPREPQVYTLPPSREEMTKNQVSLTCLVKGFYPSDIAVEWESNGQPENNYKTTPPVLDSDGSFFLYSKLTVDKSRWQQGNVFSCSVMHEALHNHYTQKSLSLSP
light: DIQMTQSPSSVSASVGDRVTITCQASESIYSGLAWYQQKPGQPPKLLIYDHSTLASGVPSRFSGSGSGTEYALTISSLQPEDFATYYCQHADYAHHSDNVFGGGTKVEIKRTVAAPSVFIFPPSDEQLKSGTASVVCLLNNFYPREAKVQWKVDNALQSGNSQESVTEQDSKDSTYSLSSTLTLSKADYEKHKVYACEVTHQGLSSPVTKSFNRGEC
notes: copies: 2 + 2
B2: Ab1H-P915/Ab1L (antibody, human IgG1, kappa, name in EU numbering)
heavy: QVQLVESGGGLVQPGGSLRLSCAASGFTLSNHDMTWVRQAPGKGLEYVSIINTYGNHWYANWASGRFTISRDNSKNTVYLQIDSLRAEDTATYYCARETHHGSSGIDHWGQGTLVTVSSASTKGPSVFPLAPSSKSTSGGTAALGCLVKDYFPEPVTVSWNSGALTSGVHTFPAVLQSSGLYSLSSVVTVPSSSLGTQTYICNVNHKPSNTKVDKKVEPKSCDKTHTCPPCPAPELLGGDSVFLFPPKPKDTLMISRTPEVTCVVVDVSHEDPEVKFNWYVDGVEVHNAKTKPREEQYNATYRVVSVLTVLHQDWLNGKEYKCKVSNKALPAPIEKTISKAKGQPREPQVYTLPPSREEMTKNQVSLTCLVKGFYPSDIAVEWESNGQPENNYKTTPPVLDRDGSFFLYSKLTVDKSRWQQGNVFSCSVMHEALHNHYTQKSLSLSP
light: B1 light
notes: copies: 2 + 2
B3: Ab1H-P850/Ab1L (antibody, human IgG1, kappa, name in EU numbering)
heavy: B2 heavy with R402S, Q421K
light: B1 light
notes: copies: 2 + 2
B4: Ab1H-P837/Ab1L (antibody, human IgG1, kappa, name in EU numbering)
heavy: B2 heavy with E347R, R402S
light: B1 light
B5: Ab1H-P847/Ab1L (antibody, human IgG1, kappa, name in EU numbering)
heavy: B2 heavy with N391K, R402S
light: B1 light
notes: copies: 2 + 2
B6: Ab1H-P912/Ab1L (antibody, human IgG1, kappa, name in EU numbering)
heavy: B2 heavy with T309R, R402S
light: B1 light
notes: copies: 2 + 2
B7: Ab1H-P851/Ab1L (antibody, human IgG1, kappa, name in EU numbering)
heavy: B2 heavy with R402S, N423R
light: B1 light
notes: copies: 2 + 2
B8: Ab1H-P841/Ab1L (antibody, human IgG1, kappa, name in EU numbering)
heavy: B2 heavy with N363R, R402S
light: B1 light
notes: copies: 2 + 2
B9: Ab1H-P842/Ab1L (antibody, human IgG1, kappa, name in EU numbering)
heavy: B2 heavy with Q364K, R402S
light: B1 light
notes: copies: 2 + 2
B10: Ab1H-P910/Ab1L (antibody, human IgG1, kappa, name in EU numbering)
heavy: B2 heavy with L311R, R402S
light: B1 light
notes: copies: 2 + 2
B11: Ab1H-P909/Ab1L (antibody, human IgG1, kappa, name in EU numbering)
heavy: B2 heavy with R402S, H437R
light: B1 light
notes: copies: 2 + 2
B12: Ab1H-P918/Ab1L (antibody, human IgG1, kappa, name in EU numbering)
heavy: B2 heavy with L330R, R402S
light: B1 light
notes: copies: 2 + 2
B13: Ab1H-P843/Ab1L (antibody, human IgG1, kappa, name in EU numbering)
heavy: B2 heavy with E382R, R402S
light: B1 light
notes: copies: 2 + 2
B14: Ab1H-P848/Ab1L (antibody, human IgG1, kappa, name in EU numbering)
heavy: B2 heavy with R402S, S417R
light: B1 light
notes: copies: 2 + 2
B15: Ab1H-P844/Ab1L (antibody, human IgG1, kappa, name in EU numbering)
heavy: B2 heavy with E384Q, R402S
light: B1 light
notes: copies: 2 + 2
B16: Ab1H-P917/Ab1L (antibody, human IgG1, kappa, name in EU numbering)
heavy: B2 heavy with A329R, R402S
light: B1 light
notes: copies: 2 + 2
B17: Ab1H-P854/Ab1L (antibody, name in EU numbering)
heavy: B2 heavy with R402S, L445R
light: B1 light
notes: copies: 2 + 2
B18: Ab1H-P852/Ab1L (antibody, human IgG1, kappa, name in EU numbering)
heavy: B2 heavy with R402S, S426K
light: B1 light
notes: copies: 2 + 2
B19: Ab1H-P828/Ab1L (antibody, human IgG1, kappa, name in EU numbering)
heavy: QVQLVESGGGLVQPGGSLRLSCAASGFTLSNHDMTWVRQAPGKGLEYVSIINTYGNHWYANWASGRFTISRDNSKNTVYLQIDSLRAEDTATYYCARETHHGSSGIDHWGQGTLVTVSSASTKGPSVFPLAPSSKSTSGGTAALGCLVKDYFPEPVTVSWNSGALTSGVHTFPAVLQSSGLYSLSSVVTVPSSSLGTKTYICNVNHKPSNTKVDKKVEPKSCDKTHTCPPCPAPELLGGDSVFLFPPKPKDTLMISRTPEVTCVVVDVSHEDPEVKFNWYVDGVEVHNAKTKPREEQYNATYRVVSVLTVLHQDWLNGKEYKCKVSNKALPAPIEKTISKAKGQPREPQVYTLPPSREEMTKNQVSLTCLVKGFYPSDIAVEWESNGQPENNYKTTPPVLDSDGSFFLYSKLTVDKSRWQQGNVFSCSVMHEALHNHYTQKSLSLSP
light: B1 light
notes: copies: 2 + 2
B20: Ab1H-P831/Ab1L (antibody, human IgG1, kappa, name in EU numbering)
heavy: B2 heavy with P389R, R402S
light: B1 light
notes: copies: 2 + 2
B21: Ab1H-P919/Ab1L (antibody, human IgG1, kappa, name in EU numbering)
heavy: B2 heavy with P331R, R402S
light: B1 light
notes: copies: 2 + 2
B22: Ab1H-P906/Ab1L (antibody, human IgG1, kappa, name in EU numbering)
heavy: B2 heavy with G387R, R402S
light: B1 light
notes: copies: 2 + 2
B23: Ab1H-P914/Ab1L (antibody, human IgG1, kappa, name in EU numbering)
heavy: B2 heavy with D401R, R402S
light: B1 light
notes: copies: 2 + 2
B24: Ab1H-P846/Ab1L (antibody, human IgG1, kappa, name in EU numbering)
heavy: B2 heavy with Q388K, R402S
light: B1 light
notes: copies: 2 + 2
B25: Ab1H-P849/Ab1L (antibody, human IgG1, kappa, name in EU numbering)
heavy: B2 heavy with R402S, Q420R
light: B1 light
notes: copies: 2 + 2
B26: Ab1H-P908/Ab1L (antibody, human IgG1, kappa, name in EU numbering)
heavy: B2 heavy with R402S, N436R
light: B1 light
notes: copies: 2 + 2
B27: Ab1H-P840/Ab1L (antibody, human IgG1, kappa, name in EU numbering)
heavy: B2 heavy with T361K, R402S
light: B1 light
notes: copies: 2 + 2
B28: Ab1H-P829/Ab1L (antibody, human IgG1, kappa, name in EU numbering)
heavy: B2 heavy with S339R, R402S
light: B1 light
notes: copies: 2 + 2
B29: Ab1H-P845/Ab1L (antibody, human IgG1, kappa, name in EU numbering)
heavy: B2 heavy with E384K, R402S
light: B1 light
notes: copies: 2 + 2
B30: Ab1H-P905/Ab1L (antibody, human IgG1, kappa, name in EU numbering)
heavy: B2 heavy with N386R, R402S
light: B1 light
notes: copies: 2 + 2

target: T1, soluble human FcγRIIb (human, UniProt P31994 43-217, limits assumed); experiment: SPR, Ab-IgE complex over captured hFcγRIIb, pH 7.4, 25C
T1 construct: soluble His-tagged form; also called hFcγRIIb
T1 sequence (looked up): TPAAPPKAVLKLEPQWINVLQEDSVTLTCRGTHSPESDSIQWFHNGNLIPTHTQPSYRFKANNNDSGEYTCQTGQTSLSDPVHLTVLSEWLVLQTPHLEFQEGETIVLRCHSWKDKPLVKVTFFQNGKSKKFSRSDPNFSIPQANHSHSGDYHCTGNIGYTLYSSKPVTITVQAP
Protocol: Fc region variant-containing antibody binding assays between soluble human FcγRIIb (a.k.a. “hFcγRIIb”) and antigen-antibody complexes were performed using BIACORE® T200 (GE Healthcare). Soluble hFcγRIIb was produced in the form of a His-tagged molecule using methods known in the art. An appropriate amount of an anti-His antibody was fixed onto Sensor chip CM5 (GE Healthcare) by the amine coupling method using a His capture kit (GE Healthcare) to capture hFcγRIIb. Next, an antibody-antigen complex and a running buffer (as a reference solution) was injected, and interaction was allowed to take place with the hFcγRIIb captured onto the sensor chip. 20 mM N-(2-Acetamido)-2-aminoethanesulfonic acid, 150 mM NaCl, 1.2 mM CaCl₂, and 0.05% (w/v) Tween 20 at pH 7.4 was used as the running buffer, and the respective buffer was also used to dilute the soluble hFcγRIIb. To regenerate the sensor chip, 10 mM glycine-HCl at pH 1.5 was used. All measurements were carried out at 25° C. Analyses were performed based on binding (RU) calculated from sensorgrains obtained by the measurements, and relative values when the binding amount of P600 was defined as 1.00 are shown. To calculate the parameters, the BIACORE® T100 Evaluation Software (GE Healthcare) was used.

Compared with B1, B2 is lower in “relative binding (RU), P600=1.00” value: 1 fold for the first, 0.85 fold for the second.

Compared with B3, B4 is lower in “relative binding (RU), P600=1.00” value: 2.22 fold for the first, 1.88 fold for the second.

Compared with B5, B6 is lower in “relative binding (RU), P600=1.00” value: 1.57 fold for the first, 0.24 fold for the second.

Compared with B7, B8 is higher in “relative binding (RU), P600=1.00” value: 1.43 fold for the first, 1.86 fold for the second.

Compared with B9, B10 is lower in “relative binding (RU), P600=1.00” value: 2.37 fold for the first, 1.73 fold for the second.

First: B11
Second: B12
The “relative binding (RU), P600=1.00” value of the first is higher: 0.73 fold for the first, -0.06 fold for the second.

First: B13
Second: B14
The “relative binding (RU), P600=1.00” value of the first is lower: -0.04 fold for the first, 1.38 fold for the second.

Compared with B15, B16 is lower in “relative binding (RU), P600=1.00” value: 1.24 fold for the first, -0.05 fold for the second.

First: B17
Second: B18
The “relative binding (RU), P600=1.00” value of the first is higher: 1.93 fold for the first, 1.4 fold for the second.

First: B19
Second: B20
The “relative binding (RU), P600=1.00” value of the first is lower: 1.27 fold for the first, 3.85 fold for the second.

First: B21
Second: B22
The “relative binding (RU), P600=1.00” value of the first is lower: -0.06 fold for the first, 1.74 fold for the second.

Going from B23 to B24, the “relative binding (RU), P600=1.00” value falls from 1.72 fold to 1.71 fold.

First: B25
Second: B26
The “relative binding (RU), P600=1.00” value of the first is higher: 2.21 fold for the first, 0.42 fold for the second.

Compared with B27, B28 is lower in “relative binding (RU), P600=1.00” value: 2.25 fold for the first, 0.17 fold for the second.

Going from B29 to B30, the “relative binding (RU), P600=1.00” value falls from 1.38 fold to 1.34 fold.
